Reference: the supplement of paper PMC11246515
± gives the standard deviation of the averaged measurements.

Experiment: total protein half-life in vivo (active degradation + dilution); higher = more stable protein
[1] = E. coli NCM3722 delta-clpP delta-lon delta-hslV, growth: N-lim chemostat, doubling time 6 h
[2] = E. coli NCM3722 delta-clpP, growth: N-lim chemostat, doubling time 6 h
[3] = E. coli NCM3722 delta-hslV, growth: N-lim chemostat, doubling time 6 h
[4] = E. coli NCM3722 delta-lon, growth: N-lim chemostat, doubling time 6 h
[5] = E. coli NCM3722 delta-smpB, growth: N-lim chemostat, doubling time 6 h
[6] = wild type E. coli NCM3722, growth: C-lim chemostat, doubling time 3 h
[7] = wild type E. coli NCM3722, growth: C-lim chemostat, doubling time 6 h
[8] = wild type E. coli NCM3722, growth: C-lim chemostat, doubling time 12 h
[9] = wild type E. coli NCM3722, growth: N-lim chemostat, doubling time 6 h
[10] = wild type E. coli NCM3722, growth: N-lim chemostat, doubling time 12 h
[11] = wild type E. coli NCM3722, growth: P-lim chemostat, doubling time 6 h
[12] = wild type E. coli NCM3722, growth: P-lim chemostat, doubling time 12 h

Sequence | total protein half-life in vivo [1] | total protein half-life in vivo [2] | total protein half-life in vivo [3] | total protein half-life in vivo [4] | total protein half-life in vivo [5] | total protein half-life in vivo [6] | total protein half-life in vivo [7] | total protein half-life in vivo [8] | total protein half-life in vivo [9] | total protein half-life in vivo [10] | total protein half-life in vivo [11] | total protein half-life in vivo [12]
MKNSKAILQVPGTMKIISAEIPVPKEDEVLIKVEYVGICGSDVHGFESGPFIPPKDPNQEIGLGHECAGTVVAVGSRVRKFKPGDRVNIEPGVPCGHCRYCLEGKYNICPDVDFMATQPNYRGALTHYLCHPESFTYKLPDNMDTMEGALVEPAAVGMHAAMLADVKPGKKIIILGAGCIGLMTLQACKCLGATEIAVVDVLEKRLAMAEQLGATVVINGAKEDTIARCQQFTEDMGADIVFETAGSAVTVKQAPYLVMRGGKIMIVGTVPGDSAINFLKINREVTIQTVFRYANRYPVTIEAISSGRFDVKSMVTHIYDYRDVQQAFEESVNNKRDIIKGVIKISD | 4.54 h | 4.02 h | 2.93 h | 3.28 h | 3.59 ± 0.58 h | 2.63 ± 0.11 h | 4.65 ± 0.57 h | 8.14 ± 1.7 h | 3.39 ± 0.43 h | 5.18 ± 0.57 h | 4.95 ± 0.44 h | 9.79 ± 0.17 h
MKNVFKALTVLLTLFSLTGCGLKGPLYFPPADKNAPPPTKPVETQTQSTVPDKNDRATGDGPSQVNY [P0ADN6] | 5.56 ± 0.35 h | 5.27 ± 1.1 h | 6.91 ± 1.1 h | 6.29 ± 0.95 h | 6.35 ± 0.59 h | 2.95 ± 0.47 h | 5.25 ± 1.2 h | > 16 h | 6.03 ± 1.2 h | – | – | 11.8 ± 0.15 h
MKNVGDLMQRLQKMMPAHIKPAFKTGEELLAWQKEQGAIRSAALERENRAMKMQRTFNRSGIRPLHQNCSFENYRVECEGQMNALSKARQYVEEFDGNIASFIFSGKPGTGKNHLAAAICNELLLRGKSVLIITVADIMSAMKDTFRNSGTSEEQLLNDLSNVDLLVIDEIGVQTESKYEKVIINQIVDRRSSSKRPTGMLTNSNMEEMTKLLGERVMDRMRLGNSLWVIFNWDSYRSRVTGKEY [P0AEF0] | 3.95 ± 0.25 h | 2.75 ± 0.059 h | 2.11 ± 0.34 h | 2.64 ± 0.32 h | 2.33 ± 0.07 h | 2.05 ± 0.26 h | 4.67 ± 0.49 h | 5.08 ± 0.67 h | 2.18 ± 0.26 h | 3.42 ± 0.18 h | 3.49 ± 0.45 h | 7.41 ± 2.5 h
MKPFLRWCFVATALTLAGCSNTSWRKSEVLAVPLQPTLQQEVILARMEQILASRALTDDERAQLLYERGVLYDSLGLRALARNDFSQALAIRPDMPEVFNYLGIYLTQAGNFDAAYEAFDSVLELDPTYNYAHLNRGIALYYGGRDKLAQDDLLAFYQDDPNDPFRSLWLYLAEQKLDEKQAKEVLKQHFEKSDKEQWGWNIVEFYLGNISEQTLMERLKADATDNTSLAEHLSETNFYLGKYYLSLGDLDSATALFKLAVANNVHNFVEHRYALLELSLLGQDQDDLAESDQQ [P0AFB1] | 6.43 ± 0.4 h | 6.3 ± 0.2 h | – | 6.621 ± 0.019 h | 6.66 ± 1.2 h | 3.15 ± 0.24 h | 5.9 ± 0.35 h | 11.3 ± 0.48 h | 6.12 ± 0.22 h | 13.5 ± 2 h | 7.56 ± 0.19 h | 13.1 ± 0.29 h
MKPGCTLFFLLCSALTVTTEAHAQTPDTATTAPYLLAGAPTFDLSISQFREDFNSQNPSLPLNEFRAIDSSPDKANLTRAASKINENLYASTALERGTLKIKSIQMTWLPIQGPEQKAAKAKAQEYMAAVIRTLTPLMTKTQSQKKLQSLLTAGKNKRYYTETEGALRYVVADNGEKGLTFAVEPIKLALSESLEGLNK | 6.2 ± 0.26 h | 5.91 ± 0.5 h | 5.05 ± 0.18 h | 5.3822 ± 0.0028 h | 5.12 ± 0.43 h | 2.86 ± 0.12 h | 5.26 ± 1.2 h | 8.36 ± 0.16 h | 4.14 ± 0.39 h | 8.35 ± 1.6 h | 3.75 ± 0.27 h | 8.75 ± 1.1 h
MKPRQRQAAILEYLQKQGKCSVEELAQYFDTTGTTIRKDLVILEHAGTVIRTYGGVVLNKEESDPPIDHKTLINTHKKELIAEAAVSFIHDGDSIILDAGSTVLQMVPLLSRFNNITVMTNSLHIVNALSELDNEQTILMPGGTFRKKSASFHGQLAENAFEHFTFDKLFMGTDGIDLNAGVTTFNEVYTVSKAMCNAAREVILMADSSKFGRKSPNVVCSLESVDKLITDAGIDPAFRQALEEKGIDVIITGESNE | – | 6.55 ± 0.26 h | 5.66 ± 0.25 h | 6.11 ± 1 h | 6.36 ± 0.59 h | 3.36 ± 0.46 h | 6.64 ± 0.39 h | 12.6 ± 2.2 h | 6.06 ± 0.35 h | 13 ± 0.2 h | 5.82 ± 0.56 h | 12.5 ± 0.15 h
MKPSSSNSRSKGHAKARRKTREELDQEARDRKRQKKRRGHAPGSRAAGGNTTSGSKGQNAPKDPRIGSKTPIPLGVTEKVTKQHKPKSEKPMLSPQAELELLETDERLDALLERLEAGETLSAEEQSWVDAKLDRIDELMQKLGLSYDDDEEEEEDEKQEDMMRLLRGN [P0A8H6] | 5.38 ± 0.29 h | 5.18 ± 0.7 h | 4.08 ± 0.55 h | 3.93 ± 0.22 h | 4.09 ± 1.7 h | 2.52 ± 0.0028 h | 4.36 ± 0.45 h | 7.24 ± 1.8 h | 3.59 ± 0.17 h | 5.58 ± 1 h | 2.98 h | 5.38 ± 0.71 h
MKPSVILYKALPDDLLQRLQEHFTVHQVANLSPQTVEQNAAIFAEAEGLLGSNENVNAALLEKMPKLRATSTISVGYDNFDVDALTARKILLMHTPTVLTETVADTLMALVLSTARRVVEVAERVKAGEWTASIGPDWYGTDVHHKTLGIVGMGRIGMALAQRAHFGFNMPILYNARRHHKEAEERFNARYCDLDTLLQESDFVCLILPLTDETHHLFGAEQFAKMKSSAIFINAGRGPVVDENALIAALQKGEIHAAGLDVFEQEPLSVDSPLLSMANVVAVPHIGSATHETRYGMAACAVDNLIDALQGKVEKNCVNPHVAD | 4.9 ± 1.3 h | 4.12 ± 0.17 h | 3.82 ± 0.29 h | 5.02 ± 0.68 h | 3.89 ± 0.12 h | 2.95 ± 0.11 h | 5.5 ± 0.48 h | 8.92 ± 0.31 h | 4.03 ± 0.16 h | 6.22 ± 0.18 h | 5.53 ± 0.1 h | 11.1 ± 0.45 h
